# Reference: publication PMC6949295 (2020)
# B1: Exo70-Flag [rat] / HA-Exo84 [not stated] (parent complex)
# chain 1: MIPPQEASARRREIEDKLKQEEETLSFIRDSLEKSDQLTKNMVSILSSFESRLMKLENSIIPVHKQTENLQRLQENVEKTLSCLDHVISYYHVASDTEKIIREGPTGRLEEYLGSMAKIQKAVEYFQDNSPDSPELNKVKLLFERGKESLESEFRSLMTRHSKVISPVLVLDLISADDELEVQEDVVLEHLPESVLQDVIRISRWLVEYGRNQDFMNVYYQIRSSQLDRSIKGLKEHFRKSSSSSGVPYSPAIPNKRKDTPTKKPIKRPGRDDMLDVETDAYIHCVSAFVRLAQSEYQLLMGIIPEHHQKKTFDSLIQDALDGLMLEGENIVSAARKAIIRHDFSTVLTVFPILRHLKQTKPEFDQVLQGTAASTKNKLPGLITSMETIGAKALEDFADNIKNDPDKEYNMPKDGTVHELTSNAILFLQQLLDFQETAGAMLASQETSSSATSYNSEFSKRLLSTYICKVLGNLQLNLLSKSKVYEDPALSAIFLHNNYNYILKSLEKSELIQLVAVTQKTAERSYREHIEQQIQTYQRSWLKVTDYIAEKNLPVFQPGVKLRDKERQMIKERFKGFNDGLEELCKIQKAWAIPDTEQRDKIRQAQKSIVKETYGAFLHRYSSVPFTKNPEKYIKYRVEQVGDMIDRLFDTSA
# chain 2: MSDSGASRLRRQLESGGFEARLYVKQLSQQSDGDRDLQEHRQRVQALAEETAQNLKRNVYQNYRQFIETAREISYLESEMYQLSHLLTEQKSSLESIPLALLPAAAAGASTGEDTAGAGPRERGAAQAGFLPGPAGVPREGPGTGEEGKQRTLTTLLEKVEGCRDLLETPGQYLVYNGDLVEYEADHMAQLQRVHGFLMNDCLLVATWLPQRRGMYRYNALYPLDRLAVVNVKDNPPMKDMFKLLMFPESRIFQAENAKIKREWLEVLEETKRALSDKRRREQEEAAALRAPPPVTSKGSNPFEDEAEEELATPEAEEEKVDLSMEWIQELPEDLDVCIAQRDFEGAVDLLDKLNHYLEDKPSPPSVKELRAKVDERVRQLTEVLVFELSPDRSLRGGPKATRRAVSQLIRLGQCTKACELFLRNRAAAVHTAIRQLRIEGATLLYIHKLCHVFFTSLLETAREFETDFAGTDSGCYSAFVVWARSAMGMFVDAFSKQVFDSKESLSTAAECVKVAKEHCQQLGEIGLDLTFIIHALLVKDIQGALLSYKEIIIEATKHRNSEEMWRRMNLMTPEALGKLKEEMRSCGVSNFEQYTGDDCWVNLSYTVVAFTKQTMGFLEEALKLYFPELHMVLLESLVEVILVAVQHVDYSLRCEQDPEKKTFIRQNASFLYDTVLPVVERRFEEGVGKPAKQLQDLRNASRLLRVNPESTTSVV
# Variants of: B1
# Experiment: co-immunoprecipitation (IP: HA, blot: Flag); 293T cells; parent: 0.13
row,Variant,response [relative band intensity]
1,"chain 1 S47D, chain 1 S59D, chain 1 S89D",0
